According to patent publication US9376486 (NATIONAL UNIVERSITY OF SINGAPORE, dated 2016):

B1: Fab HM14c10 (Fab, V domains shown)
VH: EVQLVESGGGVVQPGRSLRLSCAASGFSFSSYGMHWVRQAPGKGLEWVAVIWYDGSKTYYGDSVKGRFTISKDNSKKMVNLQMDSLGVEDTAFYYCARGIAGGWAFWGIDLWGQGTLVTVSS
VL: DVVMTQSPGTLSLSPGERATLSCRASQNVYSYLGWYQHKPGRSPRLLIFGVTSRATGVPDRFSGSGSGTDFTLTISRLEPEDFAVYYCQQYAGSAYTFGQGTKVEIKR
notes: also called HM14c10Fab; Fab 14c10
B2: HM14c10 (recombinant human IgG1 antibody 14c10, clone 8) (antibody, V domains shown)
VH: EVQLVESGGGVVQPGRSLRLSCAASGFSFSSYGMHWVRQAPGKGLEWVAVIWYDGSKTYYGDSVKGRFTISKDNSKKMVNLQMDSLGVEDTAFYYCARGIAGGWAFWGIDLWGQGTLVTVSS
VL: DVVMTQSPGTLSLSPGERATLSCRASQNVYSYLGWYQHKPGRSPRLLIFGVTSRATGVPDRFSGSGSGTDFTLTISRLEPEDFAVYYCQQYAGSAYTFGQGTKVEIKR
notes: also called 14c10.8; recombinant IgG1 14c10 antibody

What was measured:
[1] = biological target: T1, Dengue virus serotype 1 strain PVP 159 (DENV1/SG/07K3640DK1/2008) E protein, on whole virus (Dengue virus serotype 1, UniProt P27909 281-676)
T1 construct: also called DENV1 E protein

[2] = biological target: T2, Dengue virus serotype 4 (DENV4) E protein, on whole virus (Dengue virus serotype 4, UniProt P09866 280-774); assay: sandwich ELISA on live whole virus
T2 construct: mature; also called Dengue serotype 4

[3] = biological target: T3, Dengue virus serotype 2 (DENV2) E protein, on whole virus (Dengue virus serotype 2, UniProt P29990 281-775); assay: sandwich ELISA on live whole virus
T3 construct: mature; also called Dengue serotype 2

[4] = biological target: T4, Dengue virus serotype 3 (DENV3) E protein, on whole virus (Dengue virus serotype 3, UniProt P27915 281-773); assay: sandwich ELISA on live whole virus
T4 construct: mature; also called Dengue serotype 3

Binder	binding result [1]	binding result [2]	binding result [3]	binding result [4]
B1	binds	–	–	–
B2	–	no binding	no binding	no binding
